Measurements as given in paper doi:10.1101/2021.07.02.450866.
One block for each substance: values may come before it.

Legend:
[1] = target: GFP-K^b (free heavy chain of H-2K^b with N-terminal monomeric GFP) (murine) (UniProt P01901); assay: single-molecule co-tracking
[2] = target: CE3-HA-B*27:05 (HLA-B*27:05 heavy chain) (human); assay: non-reducing SDS-PAGE and Western blot of precipitated surface class I
[3] = target: isolated, soluble α3 domain of H-2K^b (recombinant) (murine) (UniProt P01901); assay: native MS
[4] = target: isolated, soluble α3 domain of H-2K^b (recombinant) (murine) (UniProt P01901); assay: SEC
[5] = target: HA-K^b (free heavy chain of H-2K^b with N-terminal HA tag) (murine) (UniProt P01901); assay: FRAP

fraction of co-locomoting molecules [1]: 3% | half-life (t½) [1]: 0.22 s | koff [1]: 3.1 s⁻¹ | stoichiometry N [1]: 2
Substance: GFP-K^b (free heavy chain of H-2K^b with N-terminal monomeric GFP) (from UniProt P01901 22-369) (natural protein)

stoichiometry N [2]: 2
Substance: CE3-HA-B*27:05 (HLA-B*27:05 heavy chain) (natural protein)

stoichiometry N [3]: 2 | Kd [4]: 10 to 20 µM | stoichiometry N [4]: 2
Substance: isolated, soluble α3 domain of H-2K^b (recombinant) (from UniProt P01901 205-295) (domain or fragment)

half-time of dissociation [5]: 140 s
Substance: K^b-GFP (free heavy chain of H-2K^b with C-terminal GFP) (from UniProt P01901 22-369) (natural protein)
